Reference: US20060253917A1 (published 2006)
Ends that are not written are not given here.

B1: OsPN23045 aa 240-287 (other)
chain: ILSKLVQAKELLKEYVEREKKKREERSETPKSNEAVTKFDGSLNSMRH
modifications: not fully specified
notes: prey, AD fusion; also called Novel Protein PN23045
B2: OsAAG46136 aa 92-222 (other)
chain: FGVNSGTTRFALENQAINEATFRCPDELGWKPQRAPIVSSDGSISNLRKTTVPVNEVNKSLQQMGFDVAPSDDAGRFVCNYVYYQSLRFAEQRGIKSLFVHFPLFTTISEEVQMNFVATLLEVLASQNYAQ
notes: prey, AD fusion; also called PN23186; O. sativa Putative Pyrrolidone Carboxyl Peptidase
B3: OsCAA33838 aa 5-155 (other)
chain: VFSRFSIYFCVLLLCHGSMAQLFNPSTNPWHSPRQGSFRECRFDRLQAFEPLRKVRSEAGVTEYFDEKNELFQCTGTFVIRRVIQPQGLLVPRYTNIPGVVYIIQGRGSMGLTFPGCPATYQQQFQQFSSQGQSQSQKFRDEHQKIHQFRQ
notes: prey, AD fusion; also called PN24775; O. sativa Glutelin CAA33838
B4: OsPN24162 aa 28-164 (other)
chain: QKLTVSTVSSSGVGLTSTAVKKGGLYTLDVSSVYKYKSTLVDVKVDTESNISTTLTVFDVLPSTKLVTSVKLPDYNSGKVEMQYFHENASFATAVGMKPSPVVEFSGTAGAQGLAFGAEAGFDTATGKFTKYSAAIG
notes: prey, AD fusion; also called Novel Protein PN24162, Porin-like, Voltage-Dependent Anion Channel Protein
B5: Os011994-D16 aa 99-368 (other)
chain: FGPSFGGGGSSRGRRQRRGEDVIHPLKVSLEDLYNGTSKKLSLSRNVLCAKCKGKGSKSGASMRCPGCQGSGMKITIRQLGPSMIQQMQQPCNECKGTGESINEKDRCPGCKGEKVIQEKKVLEVHVEKGMQHNQKITFPGEADEAPDTVTGDIVFVLQQKDHSKFKRKGDDLFYEHTLSLTEALCGFQFVLTHLDNRQLLIKSNPGEVVKPDQFKAINDEGMPMYQRPFMKGKLYIHFTVEFPDSLAPEQCKALEAVLPPKPASQLTEM
notes: prey, AD fusion; also called PN20618; Hypothetical Protein 011994-D16, Similar to Z. mays DnaJ protein
B6: OsPN22824 aa 393-494 (other)
chain: ASLVEQDLKERAAREARMGEQLRASEAARETLEAEMRRLRVQTEQWRKAAEAAPPVIGGDAHFVGHNGNGWGSPATMPDDCDDEGFGGKRKGAGIRMLGDLW
notes: prey, AD fusion; also called Novel Protein PN22824, Myosin heavy chain
B7: OsAAK72891 aa 339-651 (other)
chain: ELDLQEKTEELFKFKREKGLLTLKNDVEFEPLRKKIPQIISRMDQIISKNIKMPSLCMTNDGLDERCISAKRIDSLYYENQHLRGLLADNMKDVKELSSQLSEASKEMSIQLSSEDDLLRQIAKIKEEYEDLQIEAGVRDGVYQTITRKLLDDSMNSMHDAATNFSTELSSLEAMISEKEKALCLSNEENRMLKEKIAELEQCLIQDKQEDPEVIKQESTEIILRDIEVAPHISPRRSHETPKQDMQYDELVKLNSSLEIASAALKEVENKNIDYNGIFTKNEQEKQLECILISIMKLSKEFVEIEQKLSVER
notes: prey, AD fusion; also called PN26317
B8: OsE2F1 aa 191-436 (other)
chain: LQAEVENLSLKEQALDERISDMREKLRGLTEDENNQRWLYVTEDDIKGLPCFQNETLIAIKAPHGTTLEVPDPDEAGDYLQRRYRIVLRSTMGPIDVYLVSQFDEKFEDLGGGATPSGHANVPKHQPTEVFNTTNAGVGQCSNSVAVDNNIQHSQTIPQDPSASHDFGGMTRIIPSDIDTDADYWLISEGDVSITDMWKTAPDVQWDESLDTDVFLSEDVRTPSSHNQQPSAVGGPQMQVSDMHKP
notes: prey, AD fusion; also called PN19758
B9: OsAAG13633 aa 612-738 (other)
chain: LSSQVSSAFSANEQLLMQARKEAAELQLQKGQLEELLQKAQEDLGSIQEQHRVKVQQLLTLVDFKSKETDRLVMELKSKSDEFQNQKRCNEAKLSVLSEEIDQLKAKIENLSNERDNLFEENEQKDK
notes: prey, AD fusion; also called PN25701
B10: OsAAG13633 aa 538-738 (other)
chain: CSAHLSIISDLEANVESLENELQEQSKRLEADIQEVMRAKVEQEQRAIKAEESLRKARWNNATTAERLQEEFKMLSSQVSSAFSANEQLLMQARKEAAELQLQKGQLEELLQKAQEDLGSIQEQHRVKVQQLLTLVDFKSKETDRLVMELKSKSDEFQNQKRCNEAKLSVLSEEIDQLKAKIENLSNERDNLFEENEQKDK
notes: as for B9
B11: OsAAG13633 aa 528-789 (other)
chain: LREQLRMQYECSAHLSIISDLEANVESLENELQEQSKRLEADIQEVMRAKVEQEQRAIKAEESLRKARWNNATTAERLQEEFKMLSSQVSSAFSANEQLLMQARKEAAELQLQKGQLEELLQKAQEDLGSIQEQHRVKVQQLLTLVDFKSKETDRLVMELKSKSDEFQNQKRCNEAKLSVLSEEIDQLKAKIENLSNERDNLFEENEQKDKELAANCQKDMFLQDRDAEIALLNKELASIKDQVQTYLEEINTLKSSKNEKE
notes: as for B9
B12: OsCAA90866 aa 1-126 (other)
chain: MVEVEEVSNKMQVQMRLHPAAAAEEEDADLPLPALFDKASHLHSLASSSSLDQEGIRKGVDLLRRCDEMVSKVGLFSSNETKDDISTANLKYLLVPYYLGEMTERVAQEDRIPVLKASQDHLKEFI
notes: prey, AD fusion; also called PN20311
B13: OsORF020300-2233.2 aa 1-190 (other)
chain: MVEVEEVSNKMQAQMRLHPAAAAEEEDADLPLPALFDKASHLHSLASSSSLDQEGIRKGVDLLRRCDEMVSKLGLFSSNETKDDVSTANLKYLLVPYYLGEMTERVAQEDRIPVLKASQDHLKEFISICEALELISEDELELSRQKQPDTMANRRAQKAARFKRQKAAETKLLEIKERKERRRRSLRAAA
notes: prey, AD fusion; also called PN21639
B14: OsPN29883 aa 58-175 (other)
chain: YGQLKAAQPFFLLAGPNVIESEEHVLKMAKHIKGITTKLGLPLVFKSSFDKANRTSSKSFRGPGLEEGLKILEKVKATYDIPVVTDVHESHQCEAAGRVADIIQIPAFFCRQTDLLVA
notes: prey, AD fusion; also called Novel Protein PN29883, Fragment
B15: OsORF020300-2233.2 aa 1-206 (other)
chain: MVEVEEVSNKMQAQMRLHPAAAAEEEDADLPLPALFDKASHLHSLASSSSLDQEGIRKGVDLLRRCDEMVSKLGLFSSNETKDDVSTANLKYLLVPYYLGEMTERVAQEDRIPVLKASQDHLKEFISICEALELISEDELELSRQKQPDTMANRRAQKAARFKRQKAAETKLLEIKERKERRRRSLRAAALSAPIEAGEEDAFEDD
notes: as for B13
B16: Os000564-1102 aa 72-172 (other)
chain: SIEQKEESRGNEDRVTLIKDYRGKIETELTKICDGILKLLESHLVPSSTAPESKVFYLKMKGDYYRYLAEFKTGAERKDAAENTMVAYKAAQDIALAELPP
notes: prey, AD fusion; also called PN20072; Hypothetical protein 000564-1102
B17: OsBAB56078 aa 51-155 (other)
chain: PGRFVRKCEKTEQLLRDCVGSDIEALEKGLFGSIGSFLDDAERMTNDFLKSFGVPSINERESSSFDGQPTGRHIGGQPAGRHIEEGTAKDTKQNDYAEFSSKITD
notes: prey, AD fusion; also called PN28517; O. sativa Hypothetical protein BAB56078
B18: OsMADS13 aa 69-230 (other)
chain: RYKKAHACGSTSGAPLIEVNAQQYYQQESAKLRHQIQMLQNTNKHLVGDNVSNLSLKELKQLESRLEKGIAKIRARKNELLASEINYMAKREIELQNDNMDLRTKIAEEEQQLQQVTVARSAAMELQAAAAAQQQQQNPFAVAAAQLDMKCFFPLNLFEAAA
notes: prey, AD fusion; also called PN20668
B19: OsMADS8 aa 109-248 (other)
chain: RTQRNLLGEDLGTLGIKELEQLEKQLDSSLRHIRSTRTQHMLDQLTDLQRREQMLCEANKCLRRKLEESNQLHGQVWEHGATLLGYERQSPHAVQQVPPHGGNGFFHSLEAAAEPTLQIGFTPEQMNNSCVTAFMPTWLP
notes: prey, AD fusion; also called PN20778
B20: OsMADS5 aa 121-225 (other)
chain: LSLKELEQLENQIEISLMNIRSSKNQQLLDQVFELKRKEQQLQDANKDLKRKIQETSGENMLHISCQDVGPSGHASEANQEFLHHAICDPSLHIGYQAYMDHLNQ
notes: prey, AD fusion; also called PN20770
B21: OsMADS8 aa 74-183 (other)
chain: SYGGPDTAIQNKENELVQSSRNEYLKLKARVENLQRTQRNLLGEDLGTLGIKELEQLEKQLDSSLRHIRSTRTQHMLDQLTDLQRREQMLCEANKCLRRKLEESNQLHGQ
notes: as for B19

Target: T1, OsCAA90866 aa 100-250 (Oryza sativa)
T1 construct: bait, Gal4 DBD fusion; also called PN20311; O. sativa Chilling-Inducible Protein CAA90866
T1 chain: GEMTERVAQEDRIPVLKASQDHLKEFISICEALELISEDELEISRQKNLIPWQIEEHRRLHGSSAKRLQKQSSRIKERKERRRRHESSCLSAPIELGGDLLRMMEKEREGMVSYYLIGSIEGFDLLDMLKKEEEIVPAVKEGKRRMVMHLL
Test: Y2H; input trait library
How it was run: (§1)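 Protein-protein interactions were detected with an automated, high-throughput yeast two-hybrid assay provided by Myriad Genetics Inc. (Salt Lake City, Utah). A bait clone encoding a defined amino-acid fragment of a rice protein was screened against a rice prey library, either the input trait or the output trait library. Prey clones were retrieved, and their encoding sequences were compared by BLAST against databases to identify the interacting proteins.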

Binding result, binds:
B1
B2

target: T2, OsPP2A-2 aa 150-308 (Oryza sativa, UniProt A2XN40 150-307); test: Y2H; output trait library
T2 construct: bait, Gal4 DBD fusion; also called PN20254
T2 sequence: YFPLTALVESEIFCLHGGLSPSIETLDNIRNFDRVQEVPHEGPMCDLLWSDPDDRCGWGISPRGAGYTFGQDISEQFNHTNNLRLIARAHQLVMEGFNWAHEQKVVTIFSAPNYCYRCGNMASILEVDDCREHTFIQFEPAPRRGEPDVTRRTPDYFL

Binding result, binds:
B3
B4
B5

Target: T3, Os018989-4003 aa 90-220 (Oryza sativa)
T3 construct: bait, Gal4 DBD fusion; also called PN21044
T3 chain: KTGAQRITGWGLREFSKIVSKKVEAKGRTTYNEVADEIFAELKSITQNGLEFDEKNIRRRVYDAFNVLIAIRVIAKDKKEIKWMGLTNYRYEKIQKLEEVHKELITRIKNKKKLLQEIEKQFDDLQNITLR
Test: Y2H; output trait library
How it was run: as §1

Binding result, binds:
B6
B7
B8

target: T4, Os005750-3115 aa 50-150 (Oryza sativa, UniProt Q6IVC3 50-150); test: Y2H; output trait library
T4 construct: bait, Gal4 DBD fusion; also called PN20466; O. sativa bZIP Transcription Factor
T4 sequence: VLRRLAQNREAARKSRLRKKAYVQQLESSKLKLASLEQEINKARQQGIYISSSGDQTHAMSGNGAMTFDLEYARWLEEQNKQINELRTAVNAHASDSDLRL
How it was run: as §1

Binding result, binds:
B9
B10
B11

Target: T1, OsCAA90866 aa 100-250
Test: Y2H; output trait library

Binding result, binds:
B12
B13
B14
B15

target: T5, OsMADS5 aa 50-160 (Oryza sativa, UniProt A2Y9P0 50-160); test: Y2H; output trait library
T5 construct: bait, Gal4 DBD fusion; also called PN20770
T5 sequence: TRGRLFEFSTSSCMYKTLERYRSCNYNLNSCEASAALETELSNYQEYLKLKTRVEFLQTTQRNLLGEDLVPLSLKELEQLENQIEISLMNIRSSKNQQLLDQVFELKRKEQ
How it was run: as §1

Binding result, binds:
B16
B17
B18

target: T6, OsRAP1B aa 30-180 (Oryza sativa, UniProt Q10CQ1 30-180); test: Y2H; output trait library
T6 construct: bait, Gal4 DBD fusion; also called PN20232
T6 sequence: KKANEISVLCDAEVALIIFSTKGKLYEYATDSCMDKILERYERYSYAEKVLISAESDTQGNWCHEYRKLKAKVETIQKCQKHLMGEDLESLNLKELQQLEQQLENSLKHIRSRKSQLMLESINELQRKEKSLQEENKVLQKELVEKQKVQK
How it was run: as §1

Binding result, binds:
B19
B20
B21
